Paper PMC6003922, “Functional switching of ascorbate peroxidase 2 of rice (OsAPX2) between peroxidase and molecular chaperone” (Scientific Reports, 2018)

Target: the molecule itself
Assay: SEC; Superdex 200 10/300 GL, FPLC, 50 mM Tris-HCl pH 7.5, 100 mM NaCl, 0.5 mL/min, 4 °C; four fractions: F1 HMW complexes (>2,000 kDa), F2 and F3 LMW forms (between 158 and 440 kDa), F4 major dimeric form

B1: recombinant Oryza sativa ascorbate peroxidase 2 (OsAPX2) protein (enzyme, UniProt Q9FE01 1-251, looked up)
chain: MGSKSYPTVSDEYLAAVGKAKRKLRGLIAEKNCAPLMLRLAWHSAGTFDVSSRTGGPFGTMKNPGEQSHAANAGLDIAVRLLDPIKDQLPILSYADFYQLAGVVAVEVTGGPEVPFHPGRQDKPEPPPEGRLPDATQGSDHLRQVFSAQMGLSDKDIVALSGGHTLGRCHKERSGFEGAWTSNPLIFDNSYFTELVSGEKEGLLQLPSDKALMADPAFRPLVEKYAADEDAFFADYAEAHLKLSELGFAEE
notes: Ascorbate peroxidase 2 (OsAPX2), cytosolic, Oryza sativa; the OsAPX2 gene cloned into pET28a; monomer of approximately 27 kDa on reducing SDS-PAGE; Haem-containing peroxidase; also called His-tagged OsAPX2; purified OsAPX2; source: E. coli BL21 (DE3), pET28a, purified (nickel-nitrilotriacetate agarose; SEC)
stoichiometry N: 2
